Source: US20040219131A1 (MAXYGEN, published 2004)

T1: interferon-alpha receptor (human, UniProt P17181 28-557; P48551 27-515)
T1 sequence (looked up) 1: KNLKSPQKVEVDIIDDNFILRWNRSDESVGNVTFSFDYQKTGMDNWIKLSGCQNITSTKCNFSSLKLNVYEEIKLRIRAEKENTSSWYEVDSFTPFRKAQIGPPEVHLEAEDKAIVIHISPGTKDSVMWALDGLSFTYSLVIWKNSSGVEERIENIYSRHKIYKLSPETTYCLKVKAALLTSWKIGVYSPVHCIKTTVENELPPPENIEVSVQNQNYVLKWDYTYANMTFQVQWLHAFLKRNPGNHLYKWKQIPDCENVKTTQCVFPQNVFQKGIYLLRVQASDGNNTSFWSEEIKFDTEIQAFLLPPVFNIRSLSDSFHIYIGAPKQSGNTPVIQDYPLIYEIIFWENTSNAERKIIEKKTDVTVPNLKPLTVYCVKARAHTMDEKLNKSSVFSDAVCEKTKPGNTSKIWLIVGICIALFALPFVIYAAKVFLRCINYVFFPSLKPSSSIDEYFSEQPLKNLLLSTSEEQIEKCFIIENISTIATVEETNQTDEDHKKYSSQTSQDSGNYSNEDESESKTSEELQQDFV
T1 sequence (looked up) 2: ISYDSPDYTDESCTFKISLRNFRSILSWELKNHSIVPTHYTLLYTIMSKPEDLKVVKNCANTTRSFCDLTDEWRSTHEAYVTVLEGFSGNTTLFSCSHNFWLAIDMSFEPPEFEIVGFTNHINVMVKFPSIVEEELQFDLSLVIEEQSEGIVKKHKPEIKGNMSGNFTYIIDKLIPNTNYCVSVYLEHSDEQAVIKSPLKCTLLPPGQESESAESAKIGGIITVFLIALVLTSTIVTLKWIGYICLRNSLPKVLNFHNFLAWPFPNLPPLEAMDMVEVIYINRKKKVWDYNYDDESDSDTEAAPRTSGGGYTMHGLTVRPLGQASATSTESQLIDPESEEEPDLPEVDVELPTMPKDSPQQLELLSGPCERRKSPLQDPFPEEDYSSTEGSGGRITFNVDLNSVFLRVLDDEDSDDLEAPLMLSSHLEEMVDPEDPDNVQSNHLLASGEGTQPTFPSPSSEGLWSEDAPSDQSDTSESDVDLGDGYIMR

B1: B9x14 (ligand)
chain: CDLPQTHSLGHRRTMMLLAQMRRISLFSCLKDRHDFRFPQEEFDGNHFQKVQAIFLFYEMMQQTFNLFSTKNSSAAWDETLLEKFYIELFQQMNDLEACVMQEVGVEETPLMNVDSILAVRKYFQRITLYLTEKKYSPCAWEVVRAEIMRSFSFSTNLQKRLRRKE
B2: B9x27 (ligand)
chain: CDLPQTHSLSNRRTLMLMAQMRRISPFSCLKDRHDFGFPEEEFDGHQFQKVQAIFLLYELIQQTFNLFSTKNSSAAWDETLLEKFYIELFQQMNNLEACVIQEVGVEEIALMNVDSILAVRKYFRRITLYLTKKKYSPCSWEVVRAEIMRSFSFSTNLQKRLRRKE
B3: B9x12 (ligand)
chain: CDLPQTHSLGHRRTMMLLAQMRRISLFSCLKDRHDFRFPQEEFDGNQFQKVQAIFLFYEMMQQTFNLFSTKNSSAAWDETLLEKFYIELFQQMNDLEACVMQEVGVEETPLMNVDSILAVRKYFQRITLYLTKKKYSPCSWEVVRAEIMRSFSFSTNLQKRLRRKE
B4: B9x21 (ligand)
chain: CDLPQTHSLSNRRTLMLMAQMRRISPFSCLKDRHDFGFPEEEFDGHQFQKTQAISVLHELIQQTFNLFSTKNSSAAWDETLLEKFYIELFQQMNNLEACVIQEVGVEEIALMNVDSILAVRKYFRRITLYLTEKKYSPCAWEVVRAEIMRSFSFSTNLQKRLRRKE
B5: B9x26 (ligand)
chain: CDLPQTHSLSNRRTLMLMAQMRRISPFSCLKDRHDFGFPEEEFDGHHFQKTQAISVLHELIQQTFNLFSTKNSSAAWDETLLEKFYIELFQQMNNLEACVIQEVGVEEIALMNVDSILAVRKYFRRITLYLTKKKYSPCSWEVVRAEIMRSFSFSTNLQKRLRRKE
B6: B9x24 (ligand)
chain: CDLPQTHSLSNRRTLMLMAQMRRISPFSCLKDRHDFGFPEEEFDGHQFQKTQAISVLHELIQQTFNLFSTKNSSAAWDETLLEKFYIELFQQMNNLEACVIQEVGVEEIALMNVDSILAVRKYFRRITLYLTKKKYSPCSWEVVRAEIMRSFSFSTNLQKRLRRKE
B7: B9x15 (ligand)
chain: CDLPQTHSLGHRRTMMLLAQMRRISLFSCLKDRHDFRFPQEEFDGNQFQKTQAISVFHEMMQQTFNLFSTKNSSAAWDETLLEKFYIELFQQMNDLEACVMQEVGVEETPLMNVDSILAVRKYFQRITLYLTKKKYSPCSWEVVRAEIMRSFSFSTNLQKRLRRKE
B8: 25Ep05 (ligand)
chain: CDLPQTHSLSNRRTLMLMAQMRRISPFSCLKDRHDFGFPEEEFDGHQFQKTQAISVLHELIQQTFNLFSTKDSSAAWDETLLEKFYIELFQQMNDLEACVIQEVGVEEIALMNVDSILAVRKYFRRITLYLTEKKYSPCAWEVVRAEIMRSFSLSTNLQESLRSKE
B9: IFN-alpha Con1 (ligand)
chain: CDLPQTHSLGNRRALILLAQMRRISPFSCLKDRHDFGFPQEEFDGNQFQKAQAISVLHEMIQQTFNLFSTKDSSAAWDESLLEKFYTELYQQLNDLEACVIQEVGVEETPLMNVDSILAVKKYFQRITLYLTEKKYSPCAWEVVRAEIMRSFSLSTNLQERLRRKE
B10: B9x25 (ligand)
chain: CDLPQTHSLSNRRTLMLMAQMRRISPFSCLKDRHDFGFPEEEFDGHHFQKVQAIFLLYELIQQTFNLFSTKNSSAAWDETLLEKFYIELFQQMNNLEACVIQEVGVEEIALMNVDSILAVRKYFRRITLYLTEKKYSPCAWEVVRAEIMRSFSFSTNLQKRLRRKE
B11: B9x16 (ligand)
chain: CDLPQTHSLGHRRTMMLLAQMRRISLFSCLKDRHDFRFPQEEFDGNQFQKVQAIFLFYEMMQQTFNLFSTKNSSAAWDETLLEKFYIELFQQMNDLEACVMQEVGVEETPLMNVDSILAVRKYFQRITLYLTEKKYSPCAWEVVRAEIMRSFSFSTNLQKRLRRKE
B12: B9x23 (ligand)
chain: CDLPQTHSLSNRRTLMLMAQMRRISPFSCLKDRHDFGFPEEEFDGHQFQKVQAIFLLYELIQQTFNLFSTKNSSAAWDETLLEKFYIELFQQMNNLEACVIQEVGVEEIALMNVDSILAVRKYFRRITLYLTEKKYSPCAWEVVRAEIMRSFSFSTNLQKRLRRKE
B13: B9x18 (ligand)
chain: CDLPQTHSLGHRRTMMLLAQMRRISLFSCLKDRHDFRFPQEEFDGNQFQKTQAISVFHEMMQQTFNLFSTKNSSAAWDETLLEKFYIELFQQMNDLEACVMQEVGVEETPLMNVDSILAVRKYFQRITLYLTEKKYSPCAWEVVRAEIMRSFSFSTNLQKRLRRKE
B14: B9x22 (ligand)
chain: CDLPQTHSLSNRRTLMLMAQMRRISPFSCLKDRHDFGFPEEEFDGHHFQKTQAISVLHELIQQTFNLFSTKNSSAAWDETLLEKFYIELFQQMNNLEACVIQEVGVEEIALMNVDSILAVRKYFRRITLYLTEKKYSPCAWEVVRAEIMRSFSFSTNLQKRLRRKE
B15: B9x17 (ligand)
chain: CDLPQTHSLGHRRTMMLLAQMRRISLFSCLKDRHDFRFPQEEFDGNHFQKTQAISVFHEMMQQTFNLFSTKNSSAAWDETLLEKFYIELFQQMNDLEACVMQEVGVEETPLMNVDSILAVRKYFQRITLYLTEKKYSPCAWEVVRAEIMRSFSFSTNLQKRLRRKE
B16: B9x28 (ligand)
chain: CDLPQTHSLSNRRTLMLMAQMRRISPFSCLKDRHDFGFPEEEFDGHHFQKVQAIFLLYELIQQTFNLFSTKNSSAAWDETLLEKFYIELFQQMNNLEACVIQEVGVEEIALMNVDSILAVRKYFRRITLYLTKKKYSPCSWEVVRAEIMRSFSFSTNLQKRLRRKE
B17: B9x11 (ligand)
chain: CDLPQTHSLGHRRTMMLLAQMRRISLFSCLKDRHDFRFPQEEFDGNHFQKVQAIFLFYEMMQQTFNLFSTKNSSAAWDETLLEKFYIELFQQMNDLEACVMQEVGVEETPLMNVDSILAVRKYFQRITLYLTKKKYSPCSWEVVRAEIMRSFSFSTNLQKRLRRKE

Key:
[1] = biological target: T1, interferon-alpha receptor; assay: cell-based or functional assay
[2] = biological target: T1, interferon-alpha receptor; assay: cell-based or functional assay; remark: listed apart in the source

Binder	Antiproliferative activity relative to huIFNα-2b (EC50 huIFN-alpha 2b/EC50 sample), Daudi cell thymidine incorporation assay [1]	Antiviral activity relative to huIFNα-2b (EC50 huIFN-alpha 2b/EC50 sample), EMCV/HuH-7 assay [2]
B1	≤ 0.5 fold relative to huIFNα-2b	≥ 10 fold relative to huIFNα-2b
B2	≤ 0.25 fold relative to huIFNα-2b	≥ 10 fold relative to huIFNα-2b
B3		≥ 10 fold relative to huIFNα-2b
B4	≤ 0.5 fold relative to huIFNα-2b	≥ 10 fold relative to huIFNα-2b
B5	≤ 0.25 fold relative to huIFNα-2b	≥ 5 fold relative to huIFNα-2b
B6	≤ 0.25 fold relative to huIFNα-2b	≥ 5 fold relative to huIFNα-2b
B7	≤ 0.25 fold relative to huIFNα-2b	≥ 5 fold relative to huIFNα-2b
B8		≥ 2.5 fold relative to huIFNα-2b
B9	~1.5 fold relative to huIFNα-2b	~2 fold relative to huIFNα-2b
B10	≤ 0.5 fold relative to huIFNα-2b	≥ 10 fold relative to huIFNα-2b
B11	≤ 0.25 fold relative to huIFNα-2b	≥ 10 fold relative to huIFNα-2b
B12	≤ 0.5 fold relative to huIFNα-2b	≥ 10 fold relative to huIFNα-2b
B13	≤ 0.25 fold relative to huIFNα-2b	≥ 10 fold relative to huIFNα-2b
B14	≤ 0.5 fold relative to huIFNα-2b	≥ 10 fold relative to huIFNα-2b
B15	≤ 0.5 fold relative to huIFNα-2b	≥ 10 fold relative to huIFNα-2b
B16		≥ 10 fold relative to huIFNα-2b
B17		≥ 10 fold relative to huIFNα-2b
